In article PMC4089488 (Acta Crystallographica Section D: Biological Crystallography, 2014):
Where a chain is given by its changes, count along the chain named. Names may count otherwise.

T1: human MST1 SARAH domain (residues 432–480) (human) (UniProt Q13043)
T1 sequence: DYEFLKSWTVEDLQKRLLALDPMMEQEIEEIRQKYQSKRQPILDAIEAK

B1: human MST1 SARAH domain (residues 432–480) (domain or fragment, UniProt Q13043 432-480, looked up)
chain: T1 sequence
notes: mammalian sterile 20-like kinase 1 (MST1, KRS-2), human, 487 residues, SARAH domain residues 432-480; A selenomethionine-labelled form (E. coli B834 (DE3)) was used for SAD phasing; also called KRS-2; hMST1; source: E. coli BL21, GST fusion protein, purified as described previously (Hwang et al., 2007)
B2: human MST2 SARAH domain (residues 436–484) (domain or fragment, UniProt Q13188 436-484, looked up)
chain: DFDFLKNLSLEELQMRLKALDPMMEREIEELRQRYTAKRQPILDAMDAK
notes: mammalian sterile 20-like kinase 2 (MST2, KRS-1), human, 491 residues, SARAH domain residues 436-484; Forms a homodimer (one homodimer in the asymmetric unit); also called KRS-1; hMST2; source: E. coli BL21, GST fusion protein, purified as described previously (Hwang et al., 2010)
B3: RASSF5 SARAH domain double mutant (E388A and K398A) (domain or fragment)
chain: EVEWDAFSIPELQNFLTILEKEAQDKIQQVQKAYDKFRQKLEEALRESQGKPG
B4: human RASSF5 SARAH domain (residues 366–418) (domain or fragment, UniProt Q8WWW0 366-418, looked up)
chain: B3 chain with A23E, A33K

Columns and labels:
[1] = target: the molecule itself; experiment: cell-based or functional assay
[2] = target: B4; experiment: crystal structure; MST1–RASSF5 SARAH heterodimer (domains mixed 1:2, heterodimer separated on Superdex 75 in 25 mM HEPES pH 7.0, 100 mM NaCl, 2 mM DTT); hanging drop, 20°C, 35% MPD, acetate pH 4.8; space group C222(1), one heterodimer in the asymmetric unit; SAD phasing with SeMet MST1; settings: both partners purified
[3] = target: B4; experiment: NMR titration; MST2 SARAH homodimer titrated with the RASSF5 SARAH domain in solution (Supplementary Fig. S7); settings: both partners purified
[4] = target: the molecule itself; experiment: crystal structure; MST2 SARAH homodimer, 40 mg/ml; hanging drop, 20°C, 2.0 M NaCl, 8% PEG 6000; space group P4(1)2(1)2, one homodimer in the asymmetric unit; molecular replacement
[5] = target: T1, human MST1 SARAH domain (residues 432–480) (human)
[6] = target: B1; experiment: cell-based or functional assay

Binder: B1
- free energy of unfolding of the homodimer, urea-induced denaturation followed by CD, two-state fit [1]: 2 kcal/mol
- binding result [2]: binds

Binder: B2
- binding result [3]: binds
- binding result [4]: binds

Binder: B3
- transition concentration (C m) of urea, urea-induced denaturation of the double-mutant SARAH heterodimer followed by CD at 222 nm [5]: 3.2 M

Binder: B4
- free energy of unfolding of the heterodimer, urea-induced denaturation followed by CD, two-state fit [6]: 4.8 kcal/mol
